In one series the target is T1, Aminopeptidase N (APN) (Rattus norvegicus, UniProt P15684).
T1 sequence (P15684 33-965 limits assumed): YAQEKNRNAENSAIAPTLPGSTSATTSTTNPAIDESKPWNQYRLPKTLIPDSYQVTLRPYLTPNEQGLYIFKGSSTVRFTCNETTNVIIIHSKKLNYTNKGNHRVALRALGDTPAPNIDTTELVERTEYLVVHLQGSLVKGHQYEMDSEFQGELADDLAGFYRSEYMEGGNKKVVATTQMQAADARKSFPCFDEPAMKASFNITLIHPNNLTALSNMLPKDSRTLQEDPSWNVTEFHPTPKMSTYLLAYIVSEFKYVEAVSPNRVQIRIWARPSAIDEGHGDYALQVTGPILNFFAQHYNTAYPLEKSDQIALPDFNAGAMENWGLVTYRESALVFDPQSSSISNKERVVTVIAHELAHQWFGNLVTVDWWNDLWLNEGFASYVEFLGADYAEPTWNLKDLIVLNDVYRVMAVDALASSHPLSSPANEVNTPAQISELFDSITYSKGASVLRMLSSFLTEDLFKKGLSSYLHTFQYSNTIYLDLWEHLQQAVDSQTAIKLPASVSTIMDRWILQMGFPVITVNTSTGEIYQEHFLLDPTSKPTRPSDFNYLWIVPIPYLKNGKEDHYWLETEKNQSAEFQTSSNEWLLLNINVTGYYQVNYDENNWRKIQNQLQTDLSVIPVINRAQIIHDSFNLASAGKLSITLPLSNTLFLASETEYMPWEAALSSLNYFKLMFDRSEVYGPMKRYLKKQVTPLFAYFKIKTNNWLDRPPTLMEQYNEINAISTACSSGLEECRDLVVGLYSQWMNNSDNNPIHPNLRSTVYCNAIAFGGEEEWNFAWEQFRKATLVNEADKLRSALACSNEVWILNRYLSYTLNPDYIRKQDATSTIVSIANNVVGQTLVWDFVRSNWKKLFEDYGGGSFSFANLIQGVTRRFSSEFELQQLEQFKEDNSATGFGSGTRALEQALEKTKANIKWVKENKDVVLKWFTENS
Kind of series: Inhibition of APN aminopeptidase activity, increasing peptide concentrations. The format is biochemical.

Series [1] has as its system APN from Aeromonas proteolytica. The note with it: ref [35]; cited from earlier work.
Series [2] deals with the molecule itself. Kind of series: analytical ultracentrifugation.
In a further series the target is T2, CNGRC (disulfide 1-5 (inferred)).
T2 chain: CNGRC
Put plainly: enzyme inhibition assay.

For another series, the target named is T3, CPNGRC (disulfide 1-6 (inferred)).
T3 chain: CPNGRC
Put plainly: enzyme inhibition assay.

In the next series the target is T4, APN (Rattus norvegicus, UniProt P15684).
T4 sequence (P15684 33-965 limits assumed): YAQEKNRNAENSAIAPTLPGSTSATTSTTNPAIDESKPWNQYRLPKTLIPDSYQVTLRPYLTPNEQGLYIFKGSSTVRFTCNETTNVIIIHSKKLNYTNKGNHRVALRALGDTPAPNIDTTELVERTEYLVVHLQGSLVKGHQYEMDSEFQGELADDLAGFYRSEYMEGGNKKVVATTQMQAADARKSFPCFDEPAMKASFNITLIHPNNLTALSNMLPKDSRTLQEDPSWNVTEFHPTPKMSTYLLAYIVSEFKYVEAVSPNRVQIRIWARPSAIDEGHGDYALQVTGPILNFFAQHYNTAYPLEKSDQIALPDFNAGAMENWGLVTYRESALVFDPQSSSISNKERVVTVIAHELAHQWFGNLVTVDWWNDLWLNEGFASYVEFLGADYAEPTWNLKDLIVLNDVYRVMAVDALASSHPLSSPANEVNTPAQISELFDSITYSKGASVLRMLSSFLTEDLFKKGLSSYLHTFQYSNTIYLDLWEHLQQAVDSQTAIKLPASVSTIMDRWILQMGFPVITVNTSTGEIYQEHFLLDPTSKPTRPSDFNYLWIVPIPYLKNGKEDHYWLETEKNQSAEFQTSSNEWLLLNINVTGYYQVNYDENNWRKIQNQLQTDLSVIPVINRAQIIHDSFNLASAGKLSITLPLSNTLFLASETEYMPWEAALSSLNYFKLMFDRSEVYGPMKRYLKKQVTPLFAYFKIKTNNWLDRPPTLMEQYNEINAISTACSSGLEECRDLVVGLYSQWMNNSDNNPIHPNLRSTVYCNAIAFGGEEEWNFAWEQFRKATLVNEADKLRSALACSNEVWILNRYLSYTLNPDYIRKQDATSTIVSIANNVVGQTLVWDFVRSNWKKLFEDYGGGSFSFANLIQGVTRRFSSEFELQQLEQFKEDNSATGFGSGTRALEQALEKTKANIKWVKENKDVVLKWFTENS
Kind of series: Analytical ultracentrifugation, sedimentation equilibrium. The format is binding. The following applies: 3 nM enzyme.

Where a SMILES comes first, the peptide text is derived from it. Bridges are numbered along the chain shown (N, C = ends). Where no end group is shown, it is not given here.

A word on the IC50: it is the point on the concentration scale where inhibition reaches its midpoint. A higher IC50 goes with lower potency. A word on the Kd: it is the free concentration of one partner at which half of the binding sites on the other are occupied at equilibrium, for simple one-to-one binding.

In turn, `N=C(N)NCCC[C@@H]1NC(=O)CNC(=O)[C@H](CC(N)=O)NC(=O)[C@@H]2CCCN2C(=O)[C@@H](N)CSSC[C@@H](C(=O)O)NC1=O` [CPNGRC] (H-CPNGRC-OH; disulfide 1-6) came in with an IC50 on Aminopeptidase N (APN) of 10 µM.

In the case of `CC(C)C[C@H](NC(=O)[C@@H](O)[C@H](N)Cc1ccccc1)C(=O)O` [bestatin], the “affinity for APN from Aeromonas proteolytica” value in series [1] was “slow binding nanomolar affinity”.

B1: Aminopeptidase N (APN/CD13) ECD (protein)
chain: YAQEKNRNAENSAIAPTLPGSTSATTSTTNPAIDESKPWNQYRLPKTLIPDSYQVTLRPYLTPNEQGLYIFKGSSTVRFTCNETTNVIIIHSKKLNYTNKGNHRVALRALGDTPAPNIDTTELVERTEYLVVHLQGSLVKGHQYEMDSEFQGELADDLAGFYRSEYMEGGNKKVVATTQMQAADARKSFPCFDEPAMKASFNITLIHPNNLTALSNMLPKDSRTLQEDPSWNVTEFHPTPKMSTYLLAYIVSEFKYVEAVSPNRVQIRIWARPSAIDEGHGDYALQVTGPILNFFAQHYNTAYPLEKSDQIALPDFNAGAMENWGLVTYRESALVFDPQSSSISNKERVVTVIAHELAHQWFGNLVTVDWWNDLWLNEGFASYVEFLGADYAEPTWNLKDLIVLNDVYRVMAVDALASSHPLSSPANEVNTPAQISELFDSITYSKGASVLRMLSSFLTEDLFKKGLSSYLHTFQYSNTIYLDLWEHLQQAVDSQTAIKLPASVSTIMDRWILQMGFPVITVNTSTGEIYQEHFLLDPTSKPTRPSDFNYLWIVPIPYLKNGKEDHYWLETEKNQSAEFQTSSNEWLLLNINVTGYYQVNYDENNWRKIQNQLQTDLSVIPVINRAQIIHDSFNLASAGKLSITLPLSNTLFLASETEYMPWEAALSSLNYFKLMFDRSEVYGPMKRYLKKQVTPLFAYFKIKTNNWLDRPPTLMEQYNEINAISTACSSGLEECRDLVVGLYSQWMNNSDNNPIHPNLRSTVYCNAIAFGGEEEWNFAWEQFRKATLVNEADKLRSALACSNEVWILNRYLSYTLNPDYIRKQDATSTIVSIANNVVGQTLVWDFVRSNWKKLFEDYGGGSFSFANLIQGVTRRFSSEFELQQLEQFKEDNSATGFGSGTRALEQALEKTKANIKWVKENKDVVLKWFTENS
In series [2], B1 came in with a Kd of 1.6 µM. Besides, the IC50 in the series with CNGRC was roughly 300 µM; with CPNGRC, roughly 10 µM.

B2: APN: Aminopeptidase N isolated from rat renal brush-border membranes, treated with papain to solubilize the extracellular domains (protein, UniProt P15684 33-965, looked up)
extracellular domain: YAQEKNRNAENSAIAPTLPGSTSATTSTTNPAIDESKPWNQYRLPKTLIPDSYQVTLRPYLTPNEQGLYIFKGSSTVRFTCNETTNVIIIHSKKLNYTNKGNHRVALRALGDTPAPNIDTTELVERTEYLVVHLQGSLVKGHQYEMDSEFQGELADDLAGFYRSEYMEGGNKKVVATTQMQAADARKSFPCFDEPAMKASFNITLIHPNNLTALSNMLPKDSRTLQEDPSWNVTEFHPTPKMSTYLLAYIVSEFKYVEAVSPNRVQIRIWARPSAIDEGHGDYALQVTGPILNFFAQHYNTAYPLEKSDQIALPDFNAGAMENWGLVTYRESALVFDPQSSSISNKERVVTVIAHELAHQWFGNLVTVDWWNDLWLNEGFASYVEFLGADYAEPTWNLKDLIVLNDVYRVMAVDALASSHPLSSPANEVNTPAQISELFDSITYSKGASVLRMLSSFLTEDLFKKGLSSYLHTFQYSNTIYLDLWEHLQQAVDSQTAIKLPASVSTIMDRWILQMGFPVITVNTSTGEIYQEHFLLDPTSKPTRPSDFNYLWIVPIPYLKNGKEDHYWLETEKNQSAEFQTSSNEWLLLNINVTGYYQVNYDENNWRKIQNQLQTDLSVIPVINRAQIIHDSFNLASAGKLSITLPLSNTLFLASETEYMPWEAALSSLNYFKLMFDRSEVYGPMKRYLKKQVTPLFAYFKIKTNNWLDRPPTLMEQYNEINAISTACSSGLEECRDLVVGLYSQWMNNSDNNPIHPNLRSTVYCNAIAFGGEEEWNFAWEQFRKATLVNEADKLRSALACSNEVWILNRYLSYTLNPDYIRKQDATSTIVSIANNVVGQTLVWDFVRSNWKKLFEDYGGGSFSFANLIQGVTRRFSSEFELQQLEQFKEDNSATGFGSGTRALEQALEKTKANIKWVKENKDVVLKWFTENS
modifications: extracellular domain papain-solubilized
Regarding B2, the “APN in the dimeric state at assay concentration” value in the series with APN is given as “less than 0.4%”.

Source of the values: article PMC2890305 (Chemical biology & drug design, 2010).
